Measurements as given in FireProtDB (doi:10.1016/0022-2836(92)90906-z).

B1: Ribonuclease, P00648 (parent)
chain: MMKMEGIALKKRLSWISVCLLVLVSAAGMLFSTAAKTETSSHKAHTEAQVINTFDGVADYLQTYHKLPDNYITKSEAQALGWVASKGNLADVAPGKSIGGDIFSNREGKLPGKSGRTWREADINYTSGFRNSDRILYSSDWLIYKTTDHYQTFTKIR

Variants of: B1
Details: Bacillus amyloliquefaciens; pH 6.3; 25 °C; Urea; Fluorescence; MES 1.00 M; NaCl 613 mM; reversible: yes; structure 1BNI; whole UniProt chain shown

Q: With D59G as the variant, how does the “ddG of mutation (higher = less stable)” value read?
A: 0.2 kcal/mol

Q: What about the denaturant m value of the same variant?
A: 1.87 kcal/mol/M

Q: What about the “denaturant midpoint (higher = more stable)” value (from here on “denaturant midpoint”) of the same variant?
A: 3.97 M

Q: What about the unfolding free energy of the same variant?
A: 8.6 kcal/mol

Q: Which “ddG of mutation (higher = less stable)” value does the source give for D59S here?
A: 0.9 kcal/mol

Q: What about the denaturant m value of the same variant?
A: 1.85 kcal/mol/M

Q: What about the “denaturant midpoint” value of the same variant?
A: 4.29 M

Q: And the unfolding free energy?
A: 7.9 kcal/mol

Q: For H65S W141L, which “ddG of mutation (higher = less stable)” value is on record?
A: 2.8 kcal/mol

Q: And the denaturant m value?
A: 1.86 kcal/mol/M

Q: And the “denaturant midpoint” value?
A: 3.24 M

Q: And the unfolding free energy?
A: 6 kcal/mol

Q: What does the source list for H65A W141L?
A: ddG of mutation (higher = less stable): 2.3 kcal/mol; denaturant m value: 1.94 kcal/mol/M; denaturant midpoint (higher = more stable): 3.36 M; unfolding free energy: 6.5 kcal/mol

Q: Which “ddG of mutation (higher = less stable)” value does the source give for E76S here?
A: 1.2 kcal/mol

Q: What about the denaturant m value of the same variant?
A: 1.93 kcal/mol/M

Q: And the “denaturant midpoint” value?
A: 3.94 M

Q: And the unfolding free energy?
A: 7.6 kcal/mol

Q: Which “ddG of mutation (higher = less stable)” value does the source give for E76A here?
A: 1.2 kcal/mol

Q: What about the denaturant m value of the same variant?
A: 1.94 kcal/mol/M

Q: What about the “denaturant midpoint” value of the same variant?
A: 3.93 M

Q: And the unfolding free energy?
A: 7.6 kcal/mol

Q: Which results are given for E76G?
A: ddG of mutation (higher = less stable): 2.2 kcal/mol; denaturant m value: 1.81 kcal/mol/M; denaturant midpoint (higher = more stable): 3.64 M; unfolding free energy: 6.6 kcal/mol

Q: For G81T, which “ddG of mutation (higher = less stable)” value is on record?
A: 3.2 kcal/mol

Q: What about the denaturant m value of the same variant?
A: 1.96 kcal/mol/M

Q: What about the “denaturant midpoint” value of the same variant?
A: 2.84 M

Q: And the unfolding free energy?
A: 5.6 kcal/mol

Q: With G81S as the variant, how does the “ddG of mutation (higher = less stable)” value read?
A: 2.9 kcal/mol

Q: And the denaturant m value?
A: 2.03 kcal/mol/M

Q: What about the “denaturant midpoint” value of the same variant?
A: 2.93 M

Q: What about the unfolding free energy of the same variant?
A: 5.9 kcal/mol

Q: Which “ddG of mutation (higher = less stable)” value does the source give for G81N here?
A: 2.7 kcal/mol

Q: And the denaturant m value?
A: 1.94 kcal/mol/M

Q: And the “denaturant midpoint” value?
A: 3.16 M

Q: And the unfolding free energy?
A: 6.1 kcal/mol

Q: Which “ddG of mutation (higher = less stable)” value does the source give for G81K here?
A: 2.7 kcal/mol

Q: What about the denaturant m value of the same variant?
A: 2.06 kcal/mol/M

Q: What about the “denaturant midpoint” value of the same variant?
A: 2.97 M

Q: What about the unfolding free energy of the same variant?
A: 6.1 kcal/mol

Q: Which “ddG of mutation (higher = less stable)” value does the source give for G81H here?
A: 2.3 kcal/mol

Q: And the denaturant m value?
A: 2.02 kcal/mol/M

Q: What about the “denaturant midpoint” value of the same variant?
A: 3.21 M

Q: What about the unfolding free energy of the same variant?
A: 6.5 kcal/mol

Q: With G81A as the variant, how does the “ddG of mutation (higher = less stable)” value read?
A: 2.7 kcal/mol

Q: What about the denaturant m value of the same variant?
A: 2.06 kcal/mol/M

Q: What about the “denaturant midpoint” value of the same variant?
A: 2.97 M

Q: What about the unfolding free energy of the same variant?
A: 6.1 kcal/mol

Q: For G81D, which “ddG of mutation (higher = less stable)” value is on record?
A: 3.2 kcal/mol

Q: What about the denaturant m value of the same variant?
A: 1.99 kcal/mol/M

Q: And the “denaturant midpoint” value?
A: 2.83 M

Q: And the unfolding free energy?
A: 5.6 kcal/mol

Q: With Y64G as the variant, how does the “ddG of mutation (higher = less stable)” value read?
A: 4 kcal/mol

Q: What about the denaturant m value of the same variant?
A: 1.91 kcal/mol/M

Q: And the “denaturant midpoint” value?
A: 2.5 M

Q: What about the unfolding free energy of the same variant?
A: 4.8 kcal/mol

Q: Which “ddG of mutation (higher = less stable)” value does the source give for Y64S here?
A: 2 kcal/mol

Q: What about the denaturant m value of the same variant?
A: 2.08 kcal/mol/M

Q: And the “denaturant midpoint” value?
A: 3.25 M

Q: What about the unfolding free energy of the same variant?
A: 6.8 kcal/mol

Q: With T53P as the variant, how does the “ddG of mutation (higher = less stable)” value read?
A: 3.3 kcal/mol

Q: And the denaturant m value?
A: 1.83 kcal/mol/M

Q: And the “denaturant midpoint” value?
A: 2.99 M

Q: What about the unfolding free energy of the same variant?
A: 5.5 kcal/mol

Q: With K74G as the variant, how does the “ddG of mutation (higher = less stable)” value read?
A: -0.2 kcal/mol

Q: What about the denaturant m value of the same variant?
A: 2.11 kcal/mol/M

Q: What about the “denaturant midpoint” value of the same variant?
A: 4.29 M

Q: What about the unfolding free energy of the same variant?
A: 9 kcal/mol

Q: Which “ddG of mutation (higher = less stable)” value does the source give for T63A here?
A: 0.5 kcal/mol

Q: And the denaturant m value?
A: 1.88 kcal/mol/M

Q: What about the “denaturant midpoint” value of the same variant?
A: 4.43 M

Q: What about the unfolding free energy of the same variant?
A: 8.3 kcal/mol

Q: With H65K as the variant, how does the “ddG of mutation (higher = less stable)” value read?
A: 0.9 kcal/mol

Q: What about the denaturant m value of the same variant?
A: 1.99 kcal/mol/M

Q: And the “denaturant midpoint” value?
A: 3.96 M

Q: And the unfolding free energy?
A: 7.9 kcal/mol

Q: Which “ddG of mutation (higher = less stable)” value does the source give for H65G here?
A: 0.7 kcal/mol

Q: What about the denaturant m value of the same variant?
A: 1.91 kcal/mol/M

Q: And the “denaturant midpoint” value?
A: 4.21 M

Q: And the unfolding free energy?
A: 8.1 kcal/mol

Q: For H65S, which “ddG of mutation (higher = less stable)” value is on record?
A: 2.1 kcal/mol

Q: And the denaturant m value?
A: 1.96 kcal/mol/M

Q: What about the “denaturant midpoint” value of the same variant?
A: 3.4 M

Q: And the unfolding free energy?
A: 6.7 kcal/mol

Q: What does the source list for H65D?
A: ddG of mutation (higher = less stable): 2.2 kcal/mol; denaturant m value: 2.04 kcal/mol/M; denaturant midpoint (higher = more stable): 3.26 M; unfolding free energy: 6.6 kcal/mol

Q: With H65N as the variant, how does the “ddG of mutation (higher = less stable)” value read?
A: 1.8 kcal/mol

Q: What about the denaturant m value of the same variant?
A: 1.89 kcal/mol/M

Q: What about the “denaturant midpoint” value of the same variant?
A: 3.71 M

Q: What about the unfolding free energy of the same variant?
A: 7 kcal/mol

Q: Which “ddG of mutation (higher = less stable)” value does the source give for H65A here?
A: 1.9 kcal/mol

Q: What about the denaturant m value of the same variant?
A: 1.91 kcal/mol/M

Q: What about the “denaturant midpoint” value of the same variant?
A: 3.62 M

Q: And the unfolding free energy?
A: 6.9 kcal/mol

Q: With H65R as the variant, how does the “ddG of mutation (higher = less stable)” value read?
A: 1 kcal/mol

Q: What about the denaturant m value of the same variant?
A: 1.97 kcal/mol/M

Q: And the “denaturant midpoint” value?
A: 3.97 M

Q: And the unfolding free energy?
A: 7.8 kcal/mol

Q: With H65R W141L as the variant, how does the “ddG of mutation (higher = less stable)” value read?
A: 1.6 kcal/mol

Q: What about the denaturant m value of the same variant?
A: 2.06 kcal/mol/M

Q: What about the “denaturant midpoint” value of the same variant?
A: 3.48 M

Q: And the unfolding free energy?
A: 7.2 kcal/mol

Q: What does the source list for T73D?
A: ddG of mutation (higher = less stable): 0 kcal/mol; denaturant m value: 1.95 kcal/mol/M; denaturant midpoint (higher = more stable): 4.53 M; unfolding free energy: 8.8 kcal/mol

Q: Which “ddG of mutation (higher = less stable)” value does the source give for H65K W141L here?
A: 2.7 kcal/mol

Q: And the denaturant m value?
A: 1.8 kcal/mol/M

Q: What about the “denaturant midpoint” value of the same variant?
A: 3.37 M

Q: What about the unfolding free energy of the same variant?
A: 6.1 kcal/mol

Q: With Q78A as the variant, how does the “ddG of mutation (higher = less stable)” value read?
A: 0.3 kcal/mol

Q: And the denaturant m value?
A: 1.83 kcal/mol/M

Q: And the “denaturant midpoint” value?
A: 4.62 M

Q: What about the unfolding free energy of the same variant?
A: 8.5 kcal/mol

Q: Which results are given for Q78G?
A: ddG of mutation (higher = less stable): 1.1 kcal/mol; denaturant m value: 1.89 kcal/mol/M; denaturant midpoint (higher = more stable): 4.07 M; unfolding free energy: 7.7 kcal/mol

Q: For Q78S, which “ddG of mutation (higher = less stable)” value is on record?
A: -0.3 kcal/mol

Q: And the denaturant m value?
A: 2.05 kcal/mol/M

Q: And the “denaturant midpoint” value?
A: 4.44 M

Q: What about the unfolding free energy of the same variant?
A: 9.1 kcal/mol

Q: With S75A as the variant, how does the “ddG of mutation (higher = less stable)” value read?
A: -0.6 kcal/mol

Q: And the denaturant m value?
A: 1.98 kcal/mol/M

Q: And the “denaturant midpoint” value?
A: 4.78 M

Q: What about the unfolding free energy of the same variant?
A: 9.4 kcal/mol

Q: What does the source list for S75G?
A: ddG of mutation (higher = less stable): 0.5 kcal/mol; denaturant m value: 1.88 kcal/mol/M; denaturant midpoint (higher = more stable): 4.34 M; unfolding free energy: 8.3 kcal/mol

Q: Which “ddG of mutation (higher = less stable)” value does the source give for D55G here?
A: 1.3 kcal/mol

Q: What about the denaturant m value of the same variant?
A: 1.89 kcal/mol/M

Q: And the “denaturant midpoint” value?
A: 3.97 M

Q: What about the unfolding free energy of the same variant?
A: 7.5 kcal/mol

Q: For D55S, which “ddG of mutation (higher = less stable)” value is on record?
A: 0.7 kcal/mol

Q: And the denaturant m value?
A: 1.99 kcal/mol/M

Q: And the “denaturant midpoint” value?
A: 4.07 M

Q: And the unfolding free energy?
A: 8.1 kcal/mol
